From patent publication US20250340598A1
Values joined by “and” are separate entries in the source; they are usually repeats but may differ in a detail not shown here. Equal values may be shown once.

## PG16 RUA (antibody)
CAM13RRK
  fold enhancement of neutralization sensitivity: 50 fold
CAM13K+K169R (SIVcpz)
  fold enhancement of neutralization sensitivity: 10 fold
CH505_V2UCAOPT_v3.0
  fold improvement of neutralization sensitivity: 100 fold

## CH01 UCA (antibody)
CAP256SU_UCA_OPT
  IC50, neutralization: 1.92 µg/mL

## CAP256 VRC26 UCA (antibody)
CAP256SU (HIV-1)
  IC50, neutralization: 35 µg/mL
CAP256SU_UCA_OPT_3.0
  fold reduction of neutralization reactivity: 3 fold and 4 fold

## PCT64 LMCA (antibody)
CH505 UCA_OPT_2+H130D
  50% neutralization, pseudovirus neutralization: 100 µg/mL
CH505 UCA_OPT2+N332
  IC50, pseudovirus neutralization: 105 µg/mL
